Data: US20020064828A1 (UNIVERSITY OF BALTIMORE BIOTECHNOLOGY INSTITUTE, published 2002)
Where no end group is shown, it is not given here.

T1: PS2-loop D bait (LexA fusion, divergent region of the PS2 loop) (human, also: N-terminal LexA (pEG202) fusion, limits and linker not given here)
T1 construct: Range 301-319 is inferred from loop B being divided into loop C (31 aa) and loop D; not shown: LexA moiety of pEG202, NH2-terminal of the bait
T1 chain: TVGMAKLDPSSQGALQLPY


Columns and labels:
[1] = molecular target: full-length human presenilin 2 (PS2) expressed in HeLa cells (human, UniProt P49810 1-448); experiment: cell-based or functional assay
[2] = molecular target: T2, PS1-loop C bait with L282I, T291A (human); experiment: yeast two-hybrid liquid assay, mutated PS1-loop C bait against the T291A bait
T2 construct: Range inferred as for PS1-loop C; not shown: LexA moiety of pEG202 (N-terminal fusion partner) and the vector-encoded junction residues
Protocol: (§1) Three isolates from yeast transformed with the calmyrin in pJG4-5 (clone 7) plus each PS bait or the control lamin bait were assayed for β-galactosidase enzyme activity in liquid cultures using ONPG (O-nitrophenyl β-D-galactopyranoside) as a substrate (Reynolds and Lundblad, 1989).
(§2) Further investigation was performed to determine how these three divergent residues influenced calmyrin interaction with the PS-loop C region in yeast two-hybrid assays. […] When both proline and alanine were present together (T281P, T291A) they increased binding substantially, producing an approximately twofold higher level of binding compared with the wild-type PS2-loop bait.

[3] = molecular target: T3, PS1-loop C bait with T291A (human); experiment: yeast two-hybrid liquid assay, mutated PS1-loop C bait against PS2-loop C bait
T3 construct: Range inferred as for PS1-loop C; not shown: LexA moiety of pEG202 (N-terminal fusion partner) and the vector-encoded junction residues
Protocol: as §1, §2

[4] = molecular target: T4, PS1-loop C bait with T281P, T291A (human); experiment: as above
T4 construct: Range inferred as for PS1-loop C; also called (T281P, T291A) double mutant; not shown: LexA moiety of pEG202 (N-terminal fusion partner) and the vector-encoded junction residues
Protocol: as §1, §2

[5] = molecular target: T5, PS1-loop C bait with T281P (human); experiment: as above
T5 construct: Range inferred as for PS1-loop C; not shown: LexA moiety of pEG202 (N-terminal fusion partner) and the vector-encoded junction residues
Protocol: as §1, §2

[6] = molecular target: T6, PS2-C term bait (LexA fusion, COOH-terminal sequence of PS2 downstream of the eighth TMD) (human); experiment: yeast two-hybrid liquid beta-galactosidase assay
T6 construct: also called PS2-COOH-terminal construct; PS2-COOH-terminal domain; not shown: LexA moiety of pEG202, NH2-terminal of the bait
T6 sequence (chain, as listed by the source limits assumed): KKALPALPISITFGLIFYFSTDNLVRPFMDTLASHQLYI
Protocol: (§3) All PCR-amplified regions were digested with EcoRI and XhoI, cloned into pEG202, and confirmed by DNA sequencing. These various baits were transformed into EGY48 and found by immunoblotting of yeast extracts to express appropriately sized lexA-PS fusion polypeptides. Three isolates from yeast transformed with the calmyrin in pJG4-5 (clone 7) plus each PS bait or the control lamin bait were assayed for β-galactosidase enzyme activity in liquid cultures using ONPG (O-nitrophenyl β-D-galactopyranoside) as a substrate (Reynolds and Lundblad, 1989).
To quantify the binding specificity of calmyrin to the PS2-loop and to determine if this protein also interacts with the PS1 loop which is 45% identical in amino acid sequence, the galactosidase activity was measured in yeast liquid assays.

[7] = molecular target: T7, PS1-loop C bait with T281P, L282I (human); experiment: yeast two-hybrid liquid assay, mutated PS1-loop C bait against the T281P bait
T7 construct: Range inferred as for PS1-loop C; not shown: LexA moiety of pEG202 (N-terminal fusion partner) and the vector-encoded junction residues
Protocol: as §1, §2

[8] = molecular target: T8, PS1-loop C bait (LexA fusion, region of PS1 corresponding to PS2-loop C) (human); experiment: yeast two-hybrid liquid assay, PS1-loop C against PS2-loop C
T8 construct: not shown: LexA moiety of pEG202, NH2-terminal of the bait

[9] = molecular target: T1, PS2-loop D bait (LexA fusion, divergent …); experiment: yeast two-hybrid liquid beta-galactosidase assay (ONPG), LexA bait and calmyrin prey
Protocol: as §3
(§4) To further map the binding site of calmyrin within the PS2-loop, two new baits were constructed which divided the loop into a conserved portion, loop C (28 out of the 31 amino acids are identical to PS1 ), and a divergent region, loop D (only 33% identity to PS1; FIG. 1).

[10] = molecular target: T8, PS1-loop C bait (LexA fusion, region of …); experiment: as above
Protocol: as §3, §4

[11] = molecular target: T9, PS1-loop B bait (LexA fusion, region of PS1 corresponding to PS2-loop B) (human, UniProt P49768 264-315); experiment: as above
T9 construct: not shown: LexA moiety of pEG202, NH2-terminal of the bait
Protocol: as §3, §4

[12] = molecular target: T10, PS2-loop C bait (LexA fusion, conserved 31-amino acid loop region of PS2) (human); experiment: as above
T10 construct: Range 270-300 follows from loop start 270 and '31 amino acids'; also called wild-type PS2-loop bait; not shown: LexA moiety of pEG202, NH2-terminal of the bait
Protocol: as §3, §4

[13] = molecular target: T11, PS2-loop B bait (LexA fusion, first 50 amino acids of the PS2 loop) (human, UniProt O88777 270-319 (rat entry)); experiment: as above
T11 construct: Range 270-319 follows from 'residues 270-361' and 'the first 50 amino acids of the PS2 loop'; also called PS2-loop bait; loop bait; not shown: LexA moiety of the pEG202 LexA fusion plasmid, NH2-terminal of the bait
T11 sequence (O88777 270-319 limits assumed): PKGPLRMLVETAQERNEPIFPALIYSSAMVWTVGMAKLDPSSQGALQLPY
Protocol: as §3, §4

Row | binding result [2] | binding relative to the PS2 level [3] | fold level of binding compared with the wild-type PS2-loop bait [4] | interaction relative to the PS2 level [5] | binding result [6] | fold binding compared with the T281P bait [7] | interaction strength relative to the PS2-loop region [8] | fold increase in beta-galactosidase activity over control [9] | fold increase in beta-galactosidase activity over control [10] | fold increase in beta-galactosidase activity over lamin B control [11] | fold increase in beta-galactosidase activity over control [12] | fold increase in beta-galactosidase activity over lamin B control [13] | Binder | cell death (floating HeLa cells), fold over control, on coexpression [1]
1 |  |  |  |  |  |  |  |  |  |  |  |  | untagged full-length wild type calmyrin expressed in HeLa cells (other, myristoylated (NH2 consensus myristoylation site; 3H-myristic acid incorporated)) GGSGSRLSKELLAEYQDLTFLTKQEILLAHRRFCELLPQEQRTVESSLRAQVPFEQILSLPELKANPFKERICRVFSTSPAKDSLSFEDFLDLLSVFSDTATPDIKSHYAFRIFDFDDDGTLNREDLSRLVNCLTGEGEDTRLSASEMKQLIDNILEESDIDRDGTINLSEFQHVISRSPDFASSFKIVL | 5.9 fold
2 | binds | 0.33 fraction of the PS2 level | ~2 fold | ~0.5 fraction of the PS2 level | no binding | 1.7 fold | < 0.1 fraction of the PS2-loop strength | 2.2 fold | 5.8 fold | 1.9 fold | 74 fold | 8.5 fold | calmyrin (calcium-binding myristoylated protein with homology to calcineurin), yeast two-hybrid prey in pJG4-5 (clone 7) (other, not shown: large carriers, Prey fusion in yeast; also called CIB; KIP) MGGSGSRLSKELLAEYQDLTFLTKQEILLAHRRFCELLPQEQRTVESSLRAQVPFEQILSLPELKANPFKERICRVFSTSPAKDSLSFEDFLDLLSVFSDTATPDIKSHYAFRIFDFDDDGTLNREDLSRLVNCLTGEGEDTRLSASEMKQLIDNILEESDIDRDGTINLSEFQHVISRSPDFASSFKIVL | 
